{
  "source": "paper PMC9871958",
  "target": "SARS-CoV-2 spike ectodomain (S-trimer) (SARS-CoV-2) (UniProt P0DTC2)",
  "experiment": "cryo-EM structure",
  "data": [
    {"substance": "SARS-CoV-2 spike ectodomain (S-trimer) (from UniProt P0DTC2 14-1213) (complex)", "values": [
      {"measurement": "stoichiometry N", "result": 3}
    ]}
  ]
}
